We go through four substances from article doi:10.1101/2024.11.26.625568.

Assay [1] concerns the target dynein (UniProt Q14204).
The target of assay [2] is dynein (UniProt Q14204). This is another data set of the same source.
Assay [3] concerns the target dynein (UniProt Q14204). This is another data set of the same source.

Regarding “Full-length NuMA (from UniProt Q14980 1-2115) (natural protein)”, in assay [1], the frequency of processive runs of DDN complexes, against NuMA 1-705 under the same conditions (fold less frequent) was determined as 10.
“NuMA 1-1699 (from UniProt Q14980 1-1699) (domain or fragment)” came in with a run frequency of DDN complexes in single-molecule motility assays, against the shorter NuMA fragments in assay [2] of 5 fold lower.
In assay [3], “NuMA FL S1969D (from UniProt Q14980 1-2115) (natural protein)” gave a run frequency of DDN complexes, against wild-type NuMA FL (fold increase) of less than 4.
“NuMA FL T2055D (from UniProt Q14980 1-2115) (natural protein)”: in assay [3], the run frequency of DDN complexes, against wild-type NuMA FL (fold increase) is less than 4.
